Target: ORAI1 (Homo sapiens, UniProt Q96D31)
Test: Cameleon D3 cpV/D4 cpV intravesicular Ca^2+ assay, sec6-4 vesicles with ORAI1
Assay type: biochemical
Set-up: the ORAI functional fragment is ORAI1 (65-301), ORAI1 (65-87), or full length ORAI1; made in house; host or cells: S. cerevisiae NY17 (sec6-4), isolated secretory vesicles, vector pBEVY-GU
Description: In complementary measurements, vesicular Ca^2+ was monitored directly by coexpressing ORAI1 with the Ca^2+ sensor D3 cpV or D4 cpV53 fused to the α-mating factor secretion signal to target the sensor to the vesicles. Vesicles that had incorporated ORAI1 were isolated from sec6-4 yeast incubated at the restrictive temperature and were diluted into assay buffer.
Vesicles carrying ORAI 1 were isolated from S cerevisiae strain NY1 7 according to a standard protocol (Coury, L. A., et al., Methods Enzymol 306, 169-186 (1999); Nakamoto, R. K., et al., J Biol Chem 266, 7940-7949 (1991)). Efflux of Ca^2+ elicited by STIM1^CT fragments was detected by suspending the vesicles in a buffer containing Fura-2 as principal Ca^2+ buffer, and monitoring the Fura-2 fluorescence excitation spectrum (Meyer, T., et al., Biochemistry 29, 32-37 (1990)). As a complementary approach, ORAI 1 was coexpressed with a Ca^2+ sensor cameleon D3 cpV or cameleon D4 cpV53 that was targeted to the vesicles, and changes in intravesicular [Ca^2+] were detected as changes in FRET between CFP and YFP of the sensor.
The yeast expression vector pBEVY-GU60 allows for simultaneous expression of two transgenes by means of the bidirectional GAL1-10 promoter. The FRET-based calcium sensors D3 cpV and D4 cpV53 were fused at the N-terminus with the S. cerevisiae α-mating factor secretion signal (Bitter, G. A., et al., Proc Natl Acad Sci USA 81, 5330-5334 (1984)), which directs proteins into the secretory pathway, and introduced into pBEVY-GU in the following way. Vector pPIC9 (Invitrogen) served as template for PCR amplification of the α-mating factor secretion signal (5′ primer: […] (SEQ ID NO: 2); 3′ primer: […] (SEQ ID NO: 3)), introducing an EcoRI site at the 5′ end, and a sequence complementary to that encoding the N-terminus of the calcium sensor at the 3′ end. DNA encoding the N-terminal portion of the calcium sensor D3 cpV, comprising CFP, was amplified by PCR (5′ primer: […] (SEQ ID NO: 4); 3′ primer: […] (SEQ ID NO: 5)), introducing an SphI site followed by a stop codon and a NotI site at the 3′ end of the resulting DNA fragment. PCR-mediated fusion of the fragments representing the α-mating factor secretion signal and the sensor CFP fragment yielded αCFP, which was digested with EcoRI and NotI and subcloned into pSM703. […] Human ORAI1 was Myc-tagged at the N-terminus by PCR (5′ primer: […] (SEQ ID NO: 6); 3′ primer: […] TGGCTGCCGGGC (SEQ ID NO: 7)) and subcloned as an EcoRI-BamHI fragment into pSM703. A fragment containing Myc-ORAI1 was excised from the resulting plasmid by EcoRI digestion, blunt-ended with the Klenow fragment of DNA polymerase I, and cut with AvrII. […]

[1] = STIM 1 cytoplasmic fragments 2 μM

ORAI1, sequence (Q96D31 2-301): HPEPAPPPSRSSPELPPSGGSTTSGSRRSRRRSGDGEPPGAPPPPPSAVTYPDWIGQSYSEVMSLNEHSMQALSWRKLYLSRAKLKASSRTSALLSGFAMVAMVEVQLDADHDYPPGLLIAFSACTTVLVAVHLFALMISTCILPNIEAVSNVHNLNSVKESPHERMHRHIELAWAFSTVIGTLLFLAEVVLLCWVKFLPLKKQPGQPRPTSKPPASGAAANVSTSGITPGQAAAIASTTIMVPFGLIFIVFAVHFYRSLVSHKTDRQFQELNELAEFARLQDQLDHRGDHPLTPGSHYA

Compound: C[C@H](CCC(=O)O)C[C@H](C)C[C@H](C)C(=O)/C=C(\O)[C@H](C)C[C@H](C)C/C=C/[C@@H](C)[C@@H](O)[C@@H](C)[C@@H](O)C[C@@H]1CC[C@@](C)([C@H]2CC[C@@](C)([C@@H](C)O)O2)O1 [ionomycin, reference compound]
- vesicular Ca^2+ (cameleon FRET signal) (ionomycin 20 μM): depletion of vesicular Ca^2+

Compound: STIM1 (233-498): truncated mouse STIM1 cytoplasmic fragment, residues 233-498, His-tagged recombinant protein
- vesicular Ca^2+ (cameleon FRET signal) [1]: triggered substantial loss of vesicular Ca^2+

Compound: STIM1^CT: cytoplasmic region of STIM1, mouse residues 233-685, His-tagged recombinant protein expressed in E coli
- fluorescence intensity ratio F528 nm/F475 nm (D3 cpV sensor, wildtype ORAI1, STIM^CT 2.6 μM, p<0.001): changes the ratio significantly
- vesicular Ca^2+ (cameleon FRET signal) [1]: triggered substantial loss of vesicular Ca^2+
